According to patent publication US20240026022A1 (OSSIANIX, published 2024):

Columns and labels:
[1] = target: T1, human TfR-1 on the cell surface (hCMEC/D3 and SY-SH5Y cells) (human, UniProt P02786 1-760); experiment: flow cytometry on hCMEC/D3 cells, 1 h on ice, binding to cell surface TfR1
T1 construct: whole, on cells; also called cell surface TfR1; cell-surface hTfR1
Protocol: Flow cytometry. hCMEC/D3 cells (Weksler 2013) were seeded onto V-bottom 96-well plates at a density of 1×10⁴ cells/well. After blocking in PBS containing 10% BSA (FACS buffer) for 20 min on ice, cells were incubated with serial dilutions of TXP1. Cells were stained with propidium iodine (PI; Biolegend) for 20 min on ice, followed by anti-hFc conjugated to Alexa488 diluted 1:300 (Jackson ImmunoResearch) for 30 min on ice. After fixation in 4% PFA for 15 min on ice, the cells were analyzed on a CytoFlex flow cytometer (Beckman Coulter). Gating of cells stained with secondary antibody established the fluorescence threshold for the negative signal. The fluorescence intensity of approximately 1000 cells per condition was measured. […] EC50 values were calculated using a four parametric non-linear regression model.
Functional activity of the fully deimmunised variants was assessed using the human endothelial cell line hCMEC/D3 and the human neuronal cell line SY-SH5Y. Binding to hCMEC/D3 cells was assessed by incubation with serial antibody dilutions for 1 h on ice to avoid internalisation. The cells were fixed and binding to cell surface TfR1 was measured by flow cytometry. […] Internalisation via cell-surface hTfR1 was assessed using the hCMEC/D3 and SY-SH5Y cell lines by incubation with the antibodies for 1 hour at 37° C.

[2] = target: T2, recombinant cynomolgus TfR-1 (cynomolgus, UniProt H9EXL1 89-760 (rhesus entry)); experiment: SPR
T2 construct: also called cTfR-1; cTfR1

[3] = target: T3, recombinant human TfR-1 (transferrin receptor-1) (human, UniProt P02786 89-760); experiment: SPR
T3 construct: extracellular domain; In-house purified recombinant protein; also called hTfR-1; hTfR1

[4] = target: T3, recombinant human TfR-1 (transferrin …); experiment: ELISA, plate coated with human TfR-1, anti-hFc HRP, 4-parameter fit; drawn table under the curves
Protocol: (§1) FIG. 15. Binding activity of TXP1 and deimmunized variants assessed by ELISA. Plates were coated with either human or cynomolgus or rat TfR-1. HSA was used as a negative control. Serial dilutions of TXP1 (a VNAR antibody) or the variants as Fc fusions were added to the plate and binding was measured by end-point ELISA upon incubation with secondary anti-hFc HRP-conjugated antibodies and visualization with TMB.
(§2) TfR-1 binding ELISA. Nunc MaxiSorp plates were coated with 100 μl of 1 μg/ml of in-house purified recombinant human, mouse, rat and cynomolgus TfR-1 and incubated at 4° C. overnight. Plates were incubated with blocking buffer (2.5% non-fat dry milk in PBST) for 1 h at RT. Serially-diluted TXP1 was mixed with non-fat dry milk in PBST to a final concentration of 2.5% and incubated for 30 min. Blocked TXP1 solutions (100 μl) were transferred to the blocked plates and incubated for 1 hr. Plates were washed with PBST and incubated with anti-hFc HRP-conjugated antibody diluted 1:5,000 (Sigma) in blocking buffer for 30 min. Plates were washed and developed with SureBlue™ TMB substrate, the reaction stopped with 1% HCl and absorbance measured at 450 nm.

[5] = target: T1, human TfR-1 on the cell surface …; experiment: flow cytometry on hCMEC/D3 cells, percent positive cells, on ice
Protocol: FIG. 2. Binding of TXP1 to hCMEC/D3 cells by flow cytometry. Approximately 10,000 cells were incubated with serially diluted TXP1 for 1 hour on ice. TXP1 binding was detected using anti-human IgG Alexa488-conjugated secondary antibody. PI staining was used to exclude dead cells from the analysis. The cells were fixed and analyzed by flow cytometry. 1,000 cells per condition were acquired. Gating of cells stained with secondary antibody only allowed to set a fluorescence threshold for negative signal.
Flow cytometry. hCMEC/D3 cells (Weksler 2013) were seeded onto V-bottom 96-well plates at a density of 1×10⁴ cells/well. After blocking in PBS containing 10% BSA (FACS buffer) for 20 min on ice, cells were incubated with serial dilutions of TXP1. Cells were stained with propidium iodine (PI; Biolegend) for 20 min on ice, followed by anti-hFc conjugated to Alexa488 diluted 1:300 (Jackson ImmunoResearch) for 30 min on ice. After fixation in 4% PFA for 15 min on ice, the cells were analyzed on a CytoFlex flow cytometer (Beckman Coulter). Gating of cells stained with secondary antibody established the fluorescence threshold for the negative signal. The fluorescence intensity of approximately 1000 cells per condition was measured. Dead or dying cells were excluded from the analysis by propidium iodide staining. EC50 values were calculated using a four parametric non-linear regression model.

recombinant rat TfR-1 = target: T4, recombinant rat TfR-1 (rat, UniProt Q99376 87-761, limits assumed); experiment: ELISA, plate coated with recombinant rat TfR-1, detection with anti-hFc HRP and TMB
T4 construct: also called rTfR-1
Protocol: as §1, with “1. Cross-species reactivity” for “15. Binding activity”, “TXP1” for “TXP1 and deimmunized variants”, “mouse, human,” for “human or”, “antibody)” for “antibody) or the variants as Fc fusions”
as §2

[6] = target: T3, recombinant human TfR-1 (transferrin …); experiment: ELISA on hTfR-1 captured by plate-coated human Tf (receptor already bound to Tf), detection with anti-hFc HRP and TMB
Protocol: Competition ELISAs. For competition studies, MaxiSorp plates were coated with 100 μl of human Tf, at the concentration of 5 μg/ml overnight at 4° C. Plates were washed with phosphate-buffered saline containing 0.1% Tween20 (PBST) and blocked for 1 h with 2.5% BSA in PBST. Wells were incubated with 50 μl of hTfR-1 at 10 μg/ml for 1 h at RT and washed before adding serially diluted TXP1 and A06 VNAR antibodies for 1 h at RT. Following washing, 100 μl of 1:5,000 anti-hFc HRP-conjugated antibody (Sigma) diluted in 2.5% BSA in PBST was added and incubated for 1 h. Plates were washed and developed with SureBlue™ TMB substrate, the reaction stopped with 1% HCl and absorbance measured at 450 nm.
TXP1 competition with Tf for binding to TfR-1 was assessed by ELISA. Plates coated with Tf were used to capture hTfR-1 before incubation with serial dilutions of TXP1, A06 VNAR antibody or isotype control G12 VNAR antibody. While TXP1 and A06 VNAR antibody bind with similar nM KD in the absence of Tf (Table 5), when TfR-1 was bound to Tf, TXP1 but not the A06 VNAR antibody was still able to bind the receptor (FIG. 4).

recombinant mouse TfR-1 = target: T5, recombinant mouse TfR-1 (mouse, UniProt Q62351 89-763, limits assumed); experiment: ELISA, plate coated with recombinant mouse TfR-1, detection with anti-hFc HRP and TMB
T5 construct: also called mTfR-1
Protocol: as §1, with “1. Cross-species reactivity” for “15. Binding activity”, “TXP1” for “TXP1 and deimmunized variants”, “mouse, human,” for “human or”, “antibody)” for “antibody) or the variants as Fc fusions”
as §2

[7] = target: T2, recombinant cynomolgus TfR-1; experiment: ELISA, plate coated with cynomolgus TfR-1, anti-hFc HRP, 4-parameter fit; drawn table under the curves
Protocol: as §1, §2

HSA = target: T6, HSA (human, UniProt P02768 25-609); experiment: ELISA, plate coated with HSA, detection with anti-hFc HRP and TMB
T6 construct: Negative control
Protocol: as §1, with “1. Cross-species reactivity” for “15. Binding activity”, “TXP1” for “TXP1 and deimmunized variants”, “mouse, human,” for “human or”, “antibody)” for “antibody) or the variants as Fc fusions”
as §2

T3 sequence (P02786 89-760): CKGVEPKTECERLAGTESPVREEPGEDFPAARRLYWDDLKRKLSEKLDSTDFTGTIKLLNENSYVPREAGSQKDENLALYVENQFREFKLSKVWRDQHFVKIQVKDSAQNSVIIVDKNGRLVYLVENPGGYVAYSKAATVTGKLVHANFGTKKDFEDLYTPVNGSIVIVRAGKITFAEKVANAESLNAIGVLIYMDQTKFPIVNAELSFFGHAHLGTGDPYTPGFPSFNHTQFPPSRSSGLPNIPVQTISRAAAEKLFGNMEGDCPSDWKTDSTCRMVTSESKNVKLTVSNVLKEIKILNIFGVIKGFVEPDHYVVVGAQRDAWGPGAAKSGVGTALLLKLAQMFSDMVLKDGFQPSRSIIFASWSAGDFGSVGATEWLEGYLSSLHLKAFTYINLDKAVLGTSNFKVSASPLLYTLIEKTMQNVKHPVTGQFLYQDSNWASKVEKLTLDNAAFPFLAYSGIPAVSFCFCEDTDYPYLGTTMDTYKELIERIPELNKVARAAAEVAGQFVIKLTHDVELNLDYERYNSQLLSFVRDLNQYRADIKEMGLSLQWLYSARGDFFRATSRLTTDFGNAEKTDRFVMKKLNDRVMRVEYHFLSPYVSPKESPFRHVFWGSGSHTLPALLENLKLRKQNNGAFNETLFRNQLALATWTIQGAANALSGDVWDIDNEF
T2 sequence (chain, as listed by the source): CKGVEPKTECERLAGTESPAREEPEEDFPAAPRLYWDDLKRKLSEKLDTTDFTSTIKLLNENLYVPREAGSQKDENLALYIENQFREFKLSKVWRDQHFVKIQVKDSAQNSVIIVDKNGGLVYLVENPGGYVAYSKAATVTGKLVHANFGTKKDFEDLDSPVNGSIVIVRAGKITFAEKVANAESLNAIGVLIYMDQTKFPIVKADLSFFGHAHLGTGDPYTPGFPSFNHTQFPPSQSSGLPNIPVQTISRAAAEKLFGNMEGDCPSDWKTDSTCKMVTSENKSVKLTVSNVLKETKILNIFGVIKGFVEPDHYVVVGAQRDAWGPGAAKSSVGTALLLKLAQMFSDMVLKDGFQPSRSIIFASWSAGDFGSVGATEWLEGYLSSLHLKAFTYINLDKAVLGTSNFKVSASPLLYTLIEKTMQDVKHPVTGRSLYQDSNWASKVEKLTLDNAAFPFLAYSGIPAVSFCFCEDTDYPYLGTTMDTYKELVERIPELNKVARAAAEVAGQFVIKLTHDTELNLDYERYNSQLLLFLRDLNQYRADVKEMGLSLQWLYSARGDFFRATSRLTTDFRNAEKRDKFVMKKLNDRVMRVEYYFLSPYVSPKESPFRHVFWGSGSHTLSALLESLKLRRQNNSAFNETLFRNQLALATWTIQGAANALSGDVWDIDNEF
T1 sequence (P02786 whole entry): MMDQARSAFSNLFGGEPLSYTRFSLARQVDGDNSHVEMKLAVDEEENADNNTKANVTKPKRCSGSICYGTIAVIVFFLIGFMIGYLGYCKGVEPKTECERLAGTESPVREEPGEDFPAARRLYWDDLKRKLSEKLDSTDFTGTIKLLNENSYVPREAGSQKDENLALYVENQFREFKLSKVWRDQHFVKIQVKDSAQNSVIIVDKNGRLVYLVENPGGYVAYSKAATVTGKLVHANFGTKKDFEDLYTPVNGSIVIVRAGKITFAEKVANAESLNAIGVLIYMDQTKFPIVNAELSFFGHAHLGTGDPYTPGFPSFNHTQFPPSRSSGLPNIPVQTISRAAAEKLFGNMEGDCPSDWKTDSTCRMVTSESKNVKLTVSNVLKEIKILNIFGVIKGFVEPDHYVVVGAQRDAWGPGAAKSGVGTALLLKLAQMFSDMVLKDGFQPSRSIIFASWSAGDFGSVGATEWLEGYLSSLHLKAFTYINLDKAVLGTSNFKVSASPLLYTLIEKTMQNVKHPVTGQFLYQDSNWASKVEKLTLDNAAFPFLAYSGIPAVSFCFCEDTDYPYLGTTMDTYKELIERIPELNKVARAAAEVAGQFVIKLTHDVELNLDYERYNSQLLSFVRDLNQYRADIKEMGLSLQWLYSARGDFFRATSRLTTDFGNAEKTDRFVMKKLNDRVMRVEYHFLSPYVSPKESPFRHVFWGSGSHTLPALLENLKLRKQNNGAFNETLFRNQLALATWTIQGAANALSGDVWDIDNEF
T6 sequence (P02768 25-609): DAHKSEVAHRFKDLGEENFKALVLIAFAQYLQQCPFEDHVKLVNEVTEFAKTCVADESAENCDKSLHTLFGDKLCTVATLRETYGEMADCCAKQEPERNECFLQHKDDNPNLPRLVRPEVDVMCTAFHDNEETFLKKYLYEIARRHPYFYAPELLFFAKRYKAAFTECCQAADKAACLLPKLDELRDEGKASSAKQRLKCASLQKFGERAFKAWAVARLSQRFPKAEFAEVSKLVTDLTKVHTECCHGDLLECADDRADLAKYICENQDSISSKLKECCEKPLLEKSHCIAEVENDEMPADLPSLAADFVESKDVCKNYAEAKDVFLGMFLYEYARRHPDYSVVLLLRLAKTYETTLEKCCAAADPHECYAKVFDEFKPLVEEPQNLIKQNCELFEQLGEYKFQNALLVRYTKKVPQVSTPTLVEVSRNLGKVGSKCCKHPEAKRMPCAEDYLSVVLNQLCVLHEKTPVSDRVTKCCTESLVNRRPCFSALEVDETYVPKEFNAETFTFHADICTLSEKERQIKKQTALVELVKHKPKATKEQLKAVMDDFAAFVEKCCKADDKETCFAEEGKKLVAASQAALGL
T5 sequence (Q62351 89-763 limits assumed): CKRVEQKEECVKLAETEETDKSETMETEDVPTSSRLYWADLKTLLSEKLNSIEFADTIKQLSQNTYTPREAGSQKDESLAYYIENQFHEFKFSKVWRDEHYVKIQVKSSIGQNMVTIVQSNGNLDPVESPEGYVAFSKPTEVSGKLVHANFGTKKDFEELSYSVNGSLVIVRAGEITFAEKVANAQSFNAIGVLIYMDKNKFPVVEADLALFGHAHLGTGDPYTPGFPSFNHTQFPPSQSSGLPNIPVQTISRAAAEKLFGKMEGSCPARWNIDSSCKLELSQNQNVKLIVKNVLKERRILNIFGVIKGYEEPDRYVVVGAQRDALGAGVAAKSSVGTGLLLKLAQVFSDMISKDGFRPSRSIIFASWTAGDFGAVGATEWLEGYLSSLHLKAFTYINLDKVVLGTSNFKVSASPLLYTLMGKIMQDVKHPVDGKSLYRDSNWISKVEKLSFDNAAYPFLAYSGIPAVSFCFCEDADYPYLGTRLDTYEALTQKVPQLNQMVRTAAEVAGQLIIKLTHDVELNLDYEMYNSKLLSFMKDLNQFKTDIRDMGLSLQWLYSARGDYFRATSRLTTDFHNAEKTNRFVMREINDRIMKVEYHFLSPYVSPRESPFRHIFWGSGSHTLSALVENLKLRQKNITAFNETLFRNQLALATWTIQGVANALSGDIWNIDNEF
T4 sequence (Q99376 87-761 limits assumed): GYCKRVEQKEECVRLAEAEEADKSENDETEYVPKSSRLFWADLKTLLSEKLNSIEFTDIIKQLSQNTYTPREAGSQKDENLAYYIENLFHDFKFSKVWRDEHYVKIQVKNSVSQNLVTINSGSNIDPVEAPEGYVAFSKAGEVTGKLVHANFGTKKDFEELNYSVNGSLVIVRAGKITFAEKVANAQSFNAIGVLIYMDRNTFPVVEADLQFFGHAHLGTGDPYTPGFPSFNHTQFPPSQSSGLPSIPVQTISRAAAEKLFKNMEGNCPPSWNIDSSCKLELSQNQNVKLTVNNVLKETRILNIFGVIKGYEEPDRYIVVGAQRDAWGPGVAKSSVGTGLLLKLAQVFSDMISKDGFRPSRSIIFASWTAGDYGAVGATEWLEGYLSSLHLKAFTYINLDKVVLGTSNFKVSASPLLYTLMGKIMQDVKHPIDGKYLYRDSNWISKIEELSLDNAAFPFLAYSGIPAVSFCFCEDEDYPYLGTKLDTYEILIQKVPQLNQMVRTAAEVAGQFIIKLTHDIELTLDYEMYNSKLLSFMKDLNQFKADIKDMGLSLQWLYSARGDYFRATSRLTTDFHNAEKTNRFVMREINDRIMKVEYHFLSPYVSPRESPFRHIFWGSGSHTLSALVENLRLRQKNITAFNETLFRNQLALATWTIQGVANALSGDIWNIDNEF

EC50 [1] [nM]	Kd [2] [nM]	koff [2] [s⁻¹]	kon [2] [M⁻¹ s⁻¹]	Kd [3] [nM]	koff [3] [s⁻¹]	kon [3] [M⁻¹ s⁻¹]	EC50 [4] [nM]	EC50 [5] [nM]	binding result (recombinant rat TfR-1)	EC50 (read off the curve) [6] [nM]	binding result (recombinant mouse TfR-1)	EC50 [7] [nM]	binding result (HSA)	Binder
2.1	1.7	0.00014	87000	3	0.00026	87000								TXP1D4 (deimmunized variant VNAR-r2d4 fused to human IgG1 Fc) (Fc fusion, also called VNAR-r2d4-Fc; not shown: Human IgG1 AEF Fc and any hinge or linker at the junction) VNAR: ARVDQTPQTATKETGESLTINCVLRDSNCALSSTYWYRKKSGSTNEENISKGGRKYVETVESGSKSFSLKINDLTVEDSGTYRCNVVGTWCMSWRDVSGDGTVVTVNA
							2.9	10.1	no binding (tested: about 2e-6 M)	~10	no binding (tested: about 2e-6 M)	3.3	no binding (tested: about 2e-6 M)	TXP1 (VNAR-txp1 fused to the N-terminus of human IgG1 Fc with attenuated effector function) (Fc fusion, Bivalent VNAR-hFc, VNAR at the N-terminus of hFc IgG1; also called VNAR-txp1-hFc; VNAR antibody TXP1; not shown: Human IgG1 Fc with AEF mutations (E233P/L234V/L235A/ΔG236+A327G/A330S/P331S), and any hinge or linker at the junction) VNAR: ARVDQTPQTITKETGESLTINCVLRDSNCALSSTYWYRKKSGSTNEENISKGGRYVETVNSGSKSFSLKINDLTVEDSGTYRCNVVGTWCMSWRDVYGGGTAVTVNA
